Source: patent US20060216716A1, “Immunologic activity measures for t helper on-associated conditions” (priority 2003, published 2006)

How the values were obtained:
[1] = test system: CXCL10; conditions: within individual Crohn's Disease subjects; interferon-gamma activation; FIG. 4
Description: A pro-inflammatory stimulant, e.g., interferon-gamma, is added at a concentration of approximately 1000 units/cc and incubated at 37° C. […] At an appropriate time interval, e.g., 3 hours, the samples are centrifuged to allow collection of the plasma, or serum (the non-cell containing portion of the blood). […] In a standard sandwich ELISA detection, the plasma/serum is allowed to incubate with a capture antibody. Then, the sample is removed, the plate is washed multiple times and an antibody labeled with an enzyme is applied (detection antibody). Finally, and the plate is again washed repeatedly. Depending on the enzyme used for the detection antibody, a color change becomes evident over time after addition of the proper enzyme substrate, which can then be detected using specified light wavelength measurements. The light absorbance can be measured using a standard ELISA plate reader, which in turn produces a number. By comparing this number to a standard curve for CXCL10, a quantified amount of CXCL10 can be determined, or alternatively, the absorbance number itself may be used.

[2] = test system: CXCL9; assay: activated CXCL9 levels (interferon-gamma and tumor necrosis factor-alpha stimulation) in Crohn's Disease subjects by medication usage; type: in vivo; conditions: disease active or in remission, FIG. 7
Description: (§1) Following informed consent, a heparinized whole blood sample. […] Finally, and the plate is again washed repeatedly.
In a subsequent experiment, a combination of stimulating cytokines (interferon-gamma and tumor necrosis factor-alpha) was administered to Crohn's Disease patients and the effects of medication studied.

[3] = test system: WBC; assay: ex vivo blood stimulation, CXCL9 levels; type: cell-based
Excerpt: as §1
The effects of different forms of activation and a combination of activating cytokines on CXCL9 levels in Crohn's Disease subjects was also studied.

[4] = test system: WBC; assay: ex vivo whole blood stimulation, CXCL10 release by WBC (ELISA); type: cell-based; conditions: 3 hours post stimulation; subjects with Crohn's Disease or Ulcerative Colitis; FIG. 1
Excerpt: as §1
This response also occurs in normal individuals as well.

## azathioprine/6MP
[1]
  effect of medication on activated CXCL10 levels over time: significant changes

## S=c1nc[nH]c2nc[nH]c12 [6 MP]
[2]
  effect of medication usage on activated CXCL9 levels: brought about a change

B1: interferon-gamma (protein, UniProt P01579 24-161, looked up)
Interferon gamma: QDPYVKEAENLKKYFNAGHSDVADNGTLFLGILKNWKEESDRKIMQSQIVSFYFKLFKNFKDDQSIQKSVETIKEDMNVKFFNSNKKKRDDFEKLTNYSVTDLNVQRKAIHELIQVMAELSPAAKTGKRKRSQMLFRG
notes: pro-inflammatory stimulant cytokine added to the blood sample
[3]; Crohn's Disease subjects, FIG. 6
  serum CXCL9 concentration levels after stimulation: increased
[3]; Ulcerative Colitis subjects, active and inactive disease, FIG. 8
  serum CXCL9 concentration levels after stimulation: increased
[4]
  CXCL10 response following stimulation: a larger spread and an increase in the measurable values
